This assay deals with apoptosis-inducing factor, mitochondrial (AIFM1) (human) (UniProt O95831). Briefly: cross-linking.

By stoichiometry N is commonly meant the number of molecules, sites or subunits per partner or assembly.

Take “apoptosis-inducing factor, mitochondrial (AIFM1) (from UniProt O95831 103-613) (natural protein)”: the stoichiometry N is 2.

These data come from doi:10.1101/2025.08.20.671286.
